In publication doi:10.1101/2025.08.19.671101 (bioRxiv, 2025) one finds Kd data, which are given here for five molecules.

The target in experiment [1] is T1, 10E8-GT10.2 (synthetic construct; HIV-1 MPER helix …, N-linked glycan density at N74/75).
T1 construct: also called MPER-GT immunogen
T1 chain: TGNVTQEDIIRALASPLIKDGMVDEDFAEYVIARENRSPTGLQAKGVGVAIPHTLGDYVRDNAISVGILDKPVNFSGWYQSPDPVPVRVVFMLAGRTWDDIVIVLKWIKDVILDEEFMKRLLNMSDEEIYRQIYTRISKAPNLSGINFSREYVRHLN
The experiment can be described thus: SPR. As to conditions: both partners purified.

Experiment [2] has as its target T2, 10E8-GT12 (synthetic construct; HIV-1 MPER helix …, N-linked glycan density at N74/75).
T2 construct: also called MPER-GT immunogen
T2 chain: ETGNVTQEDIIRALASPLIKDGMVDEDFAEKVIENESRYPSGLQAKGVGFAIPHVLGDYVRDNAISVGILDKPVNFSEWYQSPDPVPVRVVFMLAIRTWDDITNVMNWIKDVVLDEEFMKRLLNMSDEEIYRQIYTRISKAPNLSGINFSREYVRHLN
The experiment can be described thus: SPR. As to conditions: both partners purified.

B1: NHP-10E8_MPER-GT10v55_W3-02 (Fab, V domains shown)
VH: EVQLVESGGGLVQPGGSLKLSCAASGFTFSDHYMDWVRQAPGKGLEWVSSVSSGSGSATLYPDSVKGRFTISRDNAKNTVYLQMNSLRAEDTAVYYCARRGLYYDFWSGYSDFYYGLDSWGQGVVVTVSS
VL: DIVMTQTPLSLPITPGEPASISCRSSQSLLQSNGNTYLHWYLQKPGQSPQLLIYGGSNRASGVPDRFSGSGSGTDFTLKISKVEAEDVGVYYCVQAIAFPFTFGPGTKLDIK
notes: source: FreeStyle 293F cells, transfected, purified
Take B1: the results for the Kd in experiment [1] and in experiment [2] were 7.5 nM and 3400 nM, respectively.

B2: SA2102_10E8-like_2911_Fab (Fab, V domains shown)
VH: QVQLKQSGPGLVQPSQSLSITCTVSGFSLTSYGVHWVRQSPGKGLEWLGVIWSGGSTDYNAAFISRLSISKDNSKSQVFFKMNSLQADDTAIYYCARAPPYYDFWSGYSYYYYYMDVWGKGTTVTV
VL: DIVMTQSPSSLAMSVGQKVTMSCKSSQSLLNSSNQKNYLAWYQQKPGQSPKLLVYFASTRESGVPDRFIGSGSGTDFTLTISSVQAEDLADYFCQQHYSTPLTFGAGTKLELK
notes: also called SA2911; source: FreeStyle 293F cells, transfected, purified
For B2, the Kd in experiment [1] stood at 787 nM; in experiment [2], 534 nM.

B3: SA684_Exp1_Scaf_MPER-GT12v56_W6-10 (Fab, V domains shown)
VH: QVTLKESGPGILQPSQTLSLTCSFSGFSLSTFGMGVGWIRQPSGKGLEWLAHIWWDDDKFYNPALKSRLTISKDTSKNQVFLKIANVDTADTATYYCARIGEDYFLDVWGKGTTVTVSS
VL: DIQMTQSPASLSASVGETVTITCRASGNIHNYLAWYQQKQGKSPQLLVYNAKTLADGVPSRFSGSGSGTQYSLKINSLQPEDFGSYYCQHFWSAPYTFGGGTNLEIK
notes: also called off-target mouse Fab W6-10; source: FreeStyle 293F cells, transfected, purified
As for B3, the equilibrium dissociation constant (Kd) in experiment [1] stood at 3 nM; in experiment [2], 1.8 nM.

B4: NHP-10E8_MPER-GT10v55_W3-05 (Fab, V domains shown)
VH: EVQLVESGGGLVQPGGSLRLSCAASGFTFSNYWMSWVRQAPGKGLEWVGFIKNKADGGTAAYAESVKGRFTISRDDSKNTLYLQMNSLKTEDTAVYYCARDLGRYNFWSGFYSQNRFDVWGPGVLVTVSS
VL: SYEVTQPPSVSVSPGQMARITCGGDNLGSKYVHWYQQKPAQAPVLVIYDDSERPSGIPERFSGSKSGNTATLTISGVEAGDEADYYCQVWDSSSDHPLFGGGTRLTVL
notes: as for B1
For the molecule B4, the Kd in experiment [1] is 19 nM; in experiment [2], 490 nM.

B5: SA684_Exp1_Scaf_MPER-GT10v55_W6-03 (Fab, V domains shown)
VH: DVQLQESGPGLVKPSQSLSLTCSVTGYSITSGYYWNWIRQFPGNKLEWMGYISYDGSNNYNPSLKNRISITRDTSQNQFFLKLNSVTTEDTASYYCAREGPYYDFWSGYYAYYMDVWGKGTTVTVSS
VL: DIVMSQSPSSLAVSVGEKVTMSCKSSQSLLYSSNQKNYLAWYQQKPGQSPKLLIYWASTRKSGVPDRFTGSGSGTDFTLTISSVKAEDLAVYYCQQYFGYPLTFGAGTKLELK
notes: as for B1
Turning to B5, the dissociation constant Kd worked out at 9 nM in experiment [1] and 8.5 nM in experiment [2].

Usually Kd stands for the equilibrium constant for the complex coming apart. Higher therefore signals lower affinity.
